Source: patent US8114968 (DYAX, dated 2012)

B1: 539B-M0007-H06 (Fab, V domains shown)
VH: EVQLLESGGGLVQPGGSLRLSCAASGFTFSHYWMHWVRQAPGKGLEWVSSISSSGGMTYYADSVKGRFTISRDNSKNTLYLQMNSLRAEDTAVYYCTTADYGYYYGMDVWGQGTTVTVSS
VL: DIQMTQSPGTLSLSSGERATLSCRASQSVSSNYLAWYQQKRGQAPRLLIYGASSRATGVPGRFSGSGSGTDFTLTISRLEPEDFAVYYCQQYGSSPRTFGQGTKLEIK
B2: 539B-M0063-B01 (Fab, V domains shown)
VH: EVQLLESGGGLVQPGGSLRLSCAASGFTFSWYWMGWVRQAPGKGLEWVSSISPSGGYTFYADSVKGRFTISRDNSKNTLYLQMNSLRAEDTAVYYCAKDIRGAYSSGLFDYWGRGTLVTVSS
VL: DIQMTQSPSSLSASVGDRVTITCRANQSIYTYLNWYQQKPGKAPELLIYAASSLQSGVPSRFSGSGSGTDFTLTISSLQPEDFATYYCQQAGIFGQGTKLEIK
B3: 539B-M0063-B11 (Fab, V domains shown)
VH: EVQLLESGGGLVQPGGSLRLSCAASGFTFSPYWMHWVRQAPGKGLEWVSGIGPSGGLTFYADSVKGRFTISRDNSKNTLYLQMNSLRAEDTAVYYCAKDIRGAYSSGLFDYWGRGTLVTVSS
VL: DIQMTQSPSSLSASVGDRVTITCRANQSIYTYLNWYQQKPGKAPELLIYAASSLQSGVPSRFSGSGSGTDFTLTISSLQPEDFATYYCQQAGIFGQGTKLEIK
B4: 539B-M0063-C07 (Fab, V domains shown)
VH: EVQLLESGGGLVQPGGSLRLSCAASGFTFSPYWMSWVRQAPGKGLEWVSGISPSGGITFYADSVKGRFTISRDNSKNTLYLQMNSLRAEDTAVYYCAKDIRGAYSSGLFDYWGRGTLVTVSS
VL: DIQMTQSPSSLSASVGDRVTITCRANQSIYTYLNWYQQKPGKAPELLIYAASSLQSGVPSRFSGSGSGTDFTLTISSLQPEDFATYYCQQAGIFGQGTKLEIK
B5: 539B-M0063-G01 (Fab, V domains shown)
VH: EVQLLESGGGLVQPGGSLRLSCAASGFTFSWYWMVWVRQAPGKGLEWVSSIGPSGGDTYYADSVKGRFTISRDNSKNTLYLQMNSLRAEDTAVYYCAKDIRGAYSSGLFDYWGRGTLVTVSS
VL: DIQMTQSPSSLSASVGDRVTITCRANQSIYTYLNWYQQKPGKAPELLIYAASSLQSGVPSRFSGSGSGTDFTLTISSLQPEDFATYYCQQAGIFGQGTKLEIK
B6: 539B-M0065-H05 (Fab, V domains shown)
VH: EVQLLESGGGLVQPGGSLRLSCAASGFTFSYYGMGWVRQAPGKGLEWVSVISSSGGFTFYADSVKGRFTISRDNSKNTLYLQMNSLRAEDTAVYYCAKDIRGAYSSGLFDYWGRGTLVTVSS
VL: DIQMTQSPSSLSASVGDRVTITCRANQSIYTYLNWYQQKPGKAPELLIYAASSLQSGVPSRFSGSGSGTDFTLTISSLQPEDFATYYCQQAGIFGQGTKLEIK
B7: 539B-M0067-B06 (Fab, V domains shown)
VH: EVQLLESGGGLVQPGGSLRLSCAASGFTFSWYWMHWVRQAPGKGLEWVSGIVSSGGTTIYADSVKGRFTISRDNSKNTLYLQMNSLRAEDTAVYYCAKDIRGAYSSGLFDYWGRGTLVTVSS
VL: DIQMTQSPSSLSASVGDRVTITCRANQSIYTYLNWYQQKPGKAPELLIYAASSLQSGVPSRFSGSGSGTDFTLTISSLQPEDFATYYCQQAGIFGQGTKLEIK
B8: 539B-M0067-F06 (Fab, V domains shown)
VH: EVQLLESGGGLVQPGGSLRLSCAASGFTFSWYNMSWVRQAPGKGLEWVSRISPSGGDTGYADSVKGRFTISRDNSKNTLYLQMNSLRAEDTAVYYCAKDIRGAYSSGLFDYWGRGTLVTVSS
VL: DIQMTQSPSSLSASVGDRVTITCRANQSIYTYLNWYQQKPGKAPELLIYAASSLQSGVPSRFSGSGSGTDFTLTISSLQPEDFATYYCQQAGIFGQGTKLEIK
B9: 539B-M0069-C02 (Fab, V domains shown)
VH: EVQLLESGGGLVQPGGSLRLSCAASGFTFSYYNMHWVRQAPGKGLEWVSGIGPSGGGTLYADSVKGRFTISRDNSKNTLYLQMNSLRAEDTAVYYCAKDIRGAYSSGLFDYWGRGTLVTVSS
VL: DIQMTQSPSSLSASVGDRVTITCRANQSIYTYLNWYQQKPGKAPELLIYAASSLQSGVPSRFSGSGSGTDFTLTISSLQPEDFATYYCQQAGIFGQGTKLEIK
B10: 539B-M0071-A01 (Fab, V domains shown)
VH: EVQLLESGGGLVQPGGSLRLSCAASGFTFSEYWMTWVRQAPGKGLEWVSGISPSGGMTFYADSVKGRFTISRDNSKNTLYLQMNSLRAEDTAVYYCAKDIRGAYSSGLFDYWGRGTLVTVSS
VL: DIQMTQSPSSLSASVGDRVTITCRANQSIYTYLNWYQQKPGKAPELLIYAASSLQSGVPSRFSGSGSGTDFTLTISSLQPEDFATYYCQQAGIFGQGTKLEIK
B11: 539B-M0071-H03 (Fab, V domains shown)
VH: EVQLLESGGGLVQPGGSLRLSCAASGFTFSPYWMHWVRQAPGKGLEWVSGIGPSGGPTFYADSIKGRFTISRDNSKNTLYLQMNSLRAEDTAVYYCAKDIRGAYSSGLFDYWGRGTLVTVSS
VL: DIQMTQSPSSLSASVGDRVTITCRANQSIYTYLNWYQQKPGKAPELLIYAASSLQSGVPSRFSGSGSGTDFTLTISSLQPEDFATYYCQQAGIFGQGTKLEIK
B12: 539B-M0011-H11 Fab (Fab, V domains shown)
VH: EVQLLESGGGLVQPGGSLRLSCAASGFTFSWYNMWWVRQAPGKGLEWVSYIYPSGGNTGYADSVKGRFTISRDNSKNTLYLQMNSLRAEDTAVYYCAVFEYSSSGPQGYWGQGTLVTVSS
VL: QSALTQPPSVSVAPGQTARITCGGNNIGTKSVHWYQQKSGQAPVLVVYDNSDRPSGIPERFSGSNSGNTATLTISRVEAGDEADYYCQVWDNSIDHVVFGGGTKLTVL
B13: 539B-M0015-F02 (Fab, V domains shown)
VH: EVQLLESGGGLVQPGGSLRLSCAASGFTFSRYGMTWVRQAPGKGLEWVSGISPSGGNTWYADSVKGRFTISRDNSKNTLYLQMNSLRAEDTAVYYCTSHDYGDHYGMDVWGQGTLVTVSS
VL: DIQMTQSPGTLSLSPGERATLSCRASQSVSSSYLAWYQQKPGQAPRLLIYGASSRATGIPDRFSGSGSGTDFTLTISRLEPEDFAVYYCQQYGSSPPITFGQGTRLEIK
B14: 539A-M0013-G12 Fab (Fab, V domains shown)
VH: EVQLLESGGGLVQPGGSLRLSCAASGFTFSWYHMFWVRQAPGKGLEWVSGISSSGGYTHYADSVKGRFTISRDNSKNTLYLQMNSLRAEDTAVYYCATREGMLYDYVWGENYMDVWGKGTTVTVSS
VL: DIQMTQSPSSLSASVGDRVTITCQASQDTYNRLHWYQQKPGKAPKLLIYDAVNLNRGVPSRFRGSGSGTNYILIITNLQPEDTATYYCQHSDDLSLAFGGGTKVEIK
B15: 539B-M0065-E12 (Fab, V domains shown)
VH: EVQLLESGGGLVQPGGSLRLSCAASGFTFSWYNMHWVRQAPGKGLEWVSGISPSGGNTMYADSVKGRFTISRDNSKNTLYLQMNSLRAEDTAVYYCAKDIRGAYSSGLFDYWGRGTLVTVSS
VL: DIQMTQSPSSLSASVGDRVTITCRANQSIYTYLNWYQQKPGKAPELLIYAASSLQSGVPSRFSGSGSGTDFTLTISSLQPEDFATYYCQQAGIFGQGTKLEIK
B16: 539B-M0065-G03 (Fab, V domains shown)
VH: EVQLLESGGGLVQPGGSLRLSCAASGFTFSWYGMGWVRQAPGKGLEWVSVIVSSGGFTQYADSVKGRFTISRDNSKNTLYLQMNSLRAEDTAVYYCAKDIRGAYSSGLFDYWGRGTLVTVSS
VL: DIQMTQSPSSLSASVGDRVTITCRANQSIYTYLNWYQQKPGKAPELLIYAASSLQSGVPSRFSGSGSGTDFTLTISSLQPEDFATYYCQQAGIFGQGTKLEIK
B17: 539B-M0069-D10 (Fab, V domains shown)
VH: EVQLLESGGGLVQPGGSLRLSCAASGFTFSLYHMHWVRQAPGKGLEWVSGIGPSGGWTIYADSVKGRFTISRDNSKNTLYLQMNSLRAEDTAVYYCAKDIRGAYSSGLFDYWGRGTLVTVSS
VL: DIQMTQSPSSLSASVGDRVTITCRANQSIYTYLNWYQQKPGKAPELLIYAASSLQSGVPSRFSGSGSGTDFTLTISSLQPEDFATYYCQQAGIFGQGTKLEIK
B18: 539B-M0071-D09 (Fab, V domains shown)
VH: EVQLLESGGGLVQPGGSLRLSCAASGFTFSPYWMHWVRQAPGKGLEWVSGISSSGGDTLYADSVKGRFTISRDNSKNTLYLQMNSLRAEDTAVYYCAKDIRGAYSSGLFDYWGRGTLVTVSS
VL: DIQMTQSPSSLSASVGDRVTITCRANQSIYTYLNWYQQKPGKAPELLIYAASSLQSGVPSRFSGSGSGTDFTLTISSLQPEDFATYYCQQAGIFGQGTKLEIK
B19: 539A-M0013-H06 Fab (Fab, V domains shown)
VH: EVQLLESGGGLVQPGGSLRLSCAASGFTFSAYEMDWVRQAPGKGLEWVSGISSSGGPTYYADSVKGRFTISRDNSKNTLYLQMNSLRAEDTAVYYCARVGGWELLQDYYYYMDVWGKGTTVTVSS
VL: DIQMTQSPATLSLSPGERATLSCRASHSVDNLAWYQQQPGQAPRLLIYDVSYRATGIPARFSGSGSGTDFTLTISSLEPEDFAVYYCQQRNNWPLSLTFGGGTKVEIK
B20: 539A-M0014-C09 Fab (Fab, V domains shown)
VH: EVQLLESGGGLVQPGGSLRLSCAASGFTFSDYSMHWVRQAPGKGLEWVSGIGPSGGPTFYADSVKGRFTISRDNSKNTLYLQMNSLRAEDTAVYYCARGEYSSSDYYYYYGMDVWGQGTTVTVSS
VL: DIQMTQSPATLSLSPGERATLSCGASQNIDGYYLAWYQQKPGQAPSLLIYDASSRSTGVPDRFSGSGSGTDFTLTISRLEPEDFAVYYCQHYGNSLWTFGQGTKVEIK

What was measured:
human MMP-12 [1] = molecular target: T1, human MMP-12 (human, UniProt P39900 106-470, limits assumed); assay: cell-based or functional assay
murine MMP-12 [2] = molecular target: T2, murine MMP-12 (mouse, UniProt P34960 110-473, limits assumed); assay: BIACORE, coated Fab
T2 construct: also called mouse MMP12; mMMP12

human MMP-12 [3] = molecular target: T1, human MMP-12; assay: BIACORE, coated Fab
murine MMP-12 [4] = molecular target: T2, murine MMP-12; assay: cell-based or functional assay
human MMP-12 [5] = molecular target: T1, human MMP-12; assay: cell-based or functional assay; remark: listed apart in the source
human MMP-12 [6] = molecular target: T1, human MMP-12; assay: cell-based or functional assay; remark: listed apart in the source

T2 sequence (P34960 110-473 limits assumed): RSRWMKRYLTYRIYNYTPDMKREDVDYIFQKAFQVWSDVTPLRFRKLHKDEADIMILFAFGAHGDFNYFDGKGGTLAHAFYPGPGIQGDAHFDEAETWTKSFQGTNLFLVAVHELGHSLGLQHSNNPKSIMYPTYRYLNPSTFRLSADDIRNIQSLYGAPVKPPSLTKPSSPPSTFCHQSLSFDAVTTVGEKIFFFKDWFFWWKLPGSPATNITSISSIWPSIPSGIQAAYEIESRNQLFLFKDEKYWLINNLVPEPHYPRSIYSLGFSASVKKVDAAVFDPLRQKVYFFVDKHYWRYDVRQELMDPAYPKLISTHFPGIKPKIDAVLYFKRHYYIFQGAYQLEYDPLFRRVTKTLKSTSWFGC
T1 sequence (P39900 106-470 limits assumed): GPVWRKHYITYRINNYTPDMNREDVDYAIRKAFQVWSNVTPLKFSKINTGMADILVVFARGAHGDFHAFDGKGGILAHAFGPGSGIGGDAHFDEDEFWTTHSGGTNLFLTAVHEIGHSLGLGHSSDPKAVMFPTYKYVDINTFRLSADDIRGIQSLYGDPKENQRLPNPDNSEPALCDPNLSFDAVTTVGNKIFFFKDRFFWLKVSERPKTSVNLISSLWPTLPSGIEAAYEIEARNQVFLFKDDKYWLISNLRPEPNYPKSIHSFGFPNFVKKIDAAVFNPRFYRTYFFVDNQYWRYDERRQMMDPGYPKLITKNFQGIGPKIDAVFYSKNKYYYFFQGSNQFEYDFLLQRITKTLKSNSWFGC

| Binder | % of activity left with 100 nM in assay 04 Oct. 2006 (human MMP-12 [1]) [%] | koff (murine MMP-12 [2]) [s⁻¹] | Kd (human MMP-12 [3]) [nM] | IC50 m (murine MMP-12 [4]) | IC50hu (human MMP-12 [5]) [nM] | IC50 (nM), large scale purified Fabs (human MMP-12 [6]) [nM] |
| --- | --- | --- | --- | --- | --- | --- |
| B1 | 55.5 | – | – | – | – | – |
| B2 | – | 0.0025 | 0.171 | > 10 nM (not printed; inferred) | 0.7 | – |
| B3 | – | 0.00311 | 0.12 | > 10 nM (not printed; inferred) | 0.7 | – |
| B4 | – | 0.002 | 2.29 | < 10 nM (not printed; inferred) | 1 | – |
| B5 | – | 0.00654 | 1.58 | > 10 nM (not printed; inferred) | 0.8 | – |
| B6 | – | – | 2.19 | – | 0.7 | – |
| B7 | – | – | 0.62 | < 10 nM (not printed; inferred) | 0.7 | – |
| B8 | – | 0.00025 | 0.203 | < 10 nM (not printed; inferred) | 0.7 | – |
| B9 | – | – | 6.97 | ~10 nM (not printed; inferred) | 1.6 | – |
| B10 | – | 0.01 | 1.1 | > 10 nM (not printed; inferred) | 0.3 | – |
| B11 | – | – | 1.03 | < 10 nM (not printed; inferred) | 0.2 | – |
| B12 | 12.2 | – | – | – | – | – |
| B13 | 84.1 | – | – | – | – | – |
| B14 | – | – | – | – | – | 6.7 |
| B15 | – | – | – | < 10 nM (not printed; inferred) | 1.4 | – |
| B16 | – | – | – | < 10 nM (not printed; inferred) | 3 | – |
| B17 | – | – | – | < 10 nM (not printed; inferred) | 2.3 | – |
| B18 | – | – | – | < 10 nM (not printed; inferred) | 2.4 | – |
| B19 | – | – | – | – | – | 11.9 |
| B20 | – | – | – | – | – | 36.9 |
